This data set concerns the molecule itself. The data set can be described thus: cryo-EM structure; single particle analysis of RNase E (1-529) at 10 uM without RNA, 8 mM CHAPSO; 7.8 A reconstruction, C1.

B1: RNase E catalytic domain (1-529) (domain or fragment)
chain: not shown
notes: RNase E, E. coli, catalytic domain, residues 1-529; Studied without RNA; 8 mM CHAPSO added before grid freezing; also called RNase E catalytic core; RNase E (1-529); source: E. coli BL21(DE3), plasmid pRne529-N, purified (Ni chelating column, gel filtration)
As for B1, the stoichiometry N (in general, a count of units in the complex or per binding partner) was 4.
